Columns and labels:
[1] = molecular target: coat protein of ssRNA bacteriophage AVE016 (uncultured ssRNA bacteriophage AVE016 (metagenome-derived)); assay: crystal structure
[2] = molecular target: coat protein of ssRNA bacteriophage EMS014 (uncultured ssRNA bacteriophage EMS014 (metagenome-derived)); assay: crystal structure

Row | Substance | stoichiometry N [1] [CP monomers] | stoichiometry N [2]
1 | coat protein of ssRNA bacteriophage AVE016 (natural protein) | 210 | –
2 | coat protein of ssRNA bacteriophage EMS014 (natural protein) | – | 2
